For experiment [1], the target named is polarity-marked microtubules (polymerised alpha-beta tubulin) (porcine) (UniProt P02554). Briefly: single molecule fluorescence motility assay; purified Cin8-3GFP-6His variants on polarity-marked Taxol MTs; MB-90 (MB with 90 mM NaCl, IS = 0.232), 4 mM ATP; 90 s recordings.
For experiment [2] the target is unchanged. Briefly: single molecule fluorescence motility assay; purified Cin8-3GFP-6His variants on polarity-marked Taxol MTs; MB-45 (MB with 45 mM NaCl, IS = 0.187), 4 mM ATP; 90 s recordings.
Experiment [3] has the same target. Briefly: single molecule fluorescence motility assay; purified Cin8-3GFP-6His variants on polarity-marked Taxol MTs; MB-135 (MB with 135 mM NaCl, IS = 0.277), 4 mM ATP; 90 s recordings.
For experiment [4] the target is unchanged. Briefly: single molecule fluorescence motility assay; Cin8-3GFP variants in whole cell extract on polarity-marked Taxol MTs; MB-80 (MB with 80 mM NaCl, IS = 0.222), 4 mM ATP; 90 s recordings, 1 s frames.
For experiment [5] the target is unchanged. Put plainly: single molecule fluorescence motility assay; Cin8-3GFP variants in whole cell extract on polarity-marked Taxol MTs; MB-30 (MB with 30 mM NaCl, IS = 0.172), 4 mM ATP; 90 s recordings, 1 s frames.

In the case of “purified wild type Cin8-3GFP-6His (plasmid pOS2) (from UniProt P27895 1-1000) (natural protein)”, the % of moving molecules with interaction times longer than 90 s in experiment [1] worked out at 53%; in experiment [2], 71%; in experiment [3] it was 14%.

For “wild type Cin8-3GFP (whole cell extract, strain LGY 2055) (from UniProt P27895 1-1000) (natural protein)”, the % of moving molecules with interaction times longer than 90 s in experiment [4] amounted to 21%; in experiment [5], 75%.

Values taken from publication PMC4877575.
